Key:
[1] = test system: GST-Chymosin pro-peptide-Hirudin fusion protein
[2] = test system: poly histidine tagged chymosin pro-peptide carp growth hormone fusion protein

| Substance | cleavage of the fusion protein at pH 2.0, Western blotting (results not shown) [1] | cleavage of the fusion protein at pH 4.5, Western blotting (results not shown) [1] | cleavage of the fusion protein at pH 2, SDS-PAGE and Western blot [2] | cleavage of the fusion protein, SDS-PAGE and Western blot [2] |
| --- | --- | --- | --- | --- |
| chymosin (Sigma) | complete cleavage was also observed when the GST-Pro-Hirudin fusion which was treated at pH 2.0 and supplemented with 2 ug chymosin | apart from treatment at pH 4.5, complete cleavage was also observed | the cleavage with chymosin yielded a protein band corresponding to the expected theoretical molecular mass of the cGH (approximately 22 kDa) polypeptide |  |
| enterokinase |  |  |  | cleavage of the fusion protein was observed with enterokinase yielding a protein band corresponding to the calculated molecular mass of the Pro-cGH fusion (26 kDa) |

Reference: patent US20030166162
